From patent US7422884B2, “Feedback-resistant mevalonate kinases” (DSM IP Assetts B.V., priority 2003, dated 2008)
Where a chain is given by its changes, count along the chain named. In names and notes the source's numbering stands.

Assays:
[1] = test system: His6-tagged Paracoccus zeaxanthinifaciens mevalonate kinase; test: Feedback inhibition of mevalonate kinase by downstream products of the pathway; assay type: biochemical; details: 138 μM of the inhibitor; wild-type His6-tagged enzyme
Procedure: (§1) Enzymatic assays for measuring mevalonate kinase activity have been described, e.g., by Popák (Meth. Enzymol. 15, 393-, 1969), Gibson et al. (Enzyme 41, 47-55, 1989), Hinson et al. (J. Lipid Res. 38, 2216-2223, 1997), Schulte et al. (Anal. Biochem. 269, 245-254, 1999), or Cho et al. (J. Biol. Chem. 276, 12573-12578, 2001). For preparing mevalonate as substrate, 130 mg of DL-mevalonate lactone (FLUKA Chemie AG, Buchs, Switzerland) were dissolved in 5.5 ml of 0.2 M KOH and incubated for 15 min at 50° C. The solution was then adjusted to pH 7.0 by addition of 0.1 M HCl at room temperature (RT). Except if stated otherwise (see Example 3), the assay mixture consists of 100 mM K2HPO4/KH2PO4 (pH 7.0), 1 mM ATP, 2 mM MgCl2, 1 mM mevalonate, 0.5 mM phosphoenolpyruvate (PEP), 0.32 mM NADH, 20 U/ml pyruvate kinase and 27 U/ml lactate dehydrogenase (Sigma-Aldrich, St. Louis, Mo., USA). FPP, GGPP, IPP, DMAPP and GPP tested as inhibitors in the assay mixtures (at concentrations of 0-100 μM) were all purchased from Sigma. Upon addition of purified (His6-tagged) mevalonate kinase, enzymatic reaction reflected by consumption of NADH was followed by photometric measurement at 340 nm. One unit (1 U) of mevalonate kinase activity catalyzes the phosphorylation of 1 μmol of mevalonate per min.
(§2) Mevalonate was prepared as described in Example 2. The assay mixture consists of 100 mM K2HPO4/KH2PO4 (pH 7.0), 1 mM ATP, 1 mM mevalonate, 2 mM MgCl2, 0.5 mM phosphoenolpyruvate (PEP), 0.32 mM NADH, 20 U/ml pyruvate kinase and 27 U/ml lactate dehydrogenase (Sigma-Aldrich, St. Louis, Mo., USA). FPP, GGPP, IPP, DMAPP and GPP tested as inhibitors in the assay mixtures were all purchased from Sigma. 92 μM FPP or 17.6 μM GGPP were used for inhibition assays performed with the mevalonate kinase mutants. For the comparison of inhibition by FPP, GGPP, IPP, DMAPP and GPP, 138 μM of these intermediates were added (Example 9). Upon addition of purified (HiS6-tagged) mevalonate kinase, enzymatic reaction reflected by consumption of NADH was followed by photometric measurement at 340 nm.
Different mevalonate kinases were previously reported to be sensitive to feedback inhibition by the following downstream products of the mevalonate pathway: IPP, DMAPP, GPP, FPP, GGPP, phytyl-PP, farnesol, dolichol phosphate.

[2] = test system: Paracoccus zeaxanthinifaciens mevalonate kinase; test: Mevalonate kinase activity assay (NADH-coupled photometric assay, specific activity of mutants); assay type: biochemical; details: purified His6-tagged enzyme, 1 mM ATP, 1 mM mevalonate, pH 7.0
Procedure: as §1, §2

[3] = test system: Paracoccus zeaxanthinifaciens mevalonate kinase; test: Feedback resistance of mevalonate kinase mutants to FPP or GGPP; assay type: biochemical; details: feedback inhibitor FPP, 92 μM; relative to wild-type
Procedure: “Feedback resistance” shall mean any increase in resistance to “feedback inhibition” (as defined above). Feedback resistance can be analyzed in different ways known to those skilled in the art. An appropriate approach shall be described here shortly: mevalonate kinase activity is measured in an activity assay similar to the one described in Example 2 at non-saturating concentrations of ATP (or of another phosphate donor) and mevalonate (or mevalonate analogue), i.e., at ATP (or phosphate donor) and mevalonate (or mevalonate analogue) concentrations around which the reaction rate is sensitive to changes of these substrate concentrations, e.g. at concentrations around the respective Km values of the enzyme under investigation for these substrates. The activities of both wild-type mevalonate kinase and of a variant/mutant of this enzyme are measured under otherwise identical conditions both in the absence and presence of a relevant concentration of a feedback inhibitor, i.e., at a concentration of feedback inhibitor affording significant inhibition of the wild-type mevalonate kinase. […] Feedback resistance (%) is calculated as follows: if a and b are the measured mevalonate kinase activities of the wild-type enzyme in the absence and presence, respectively, of the feedback inhibitor (e.g., FPP), and if c and d are the measured mevalonate kinase activities of the mutant enzyme in the absence and presence, respectively, of the same feedback inhibitor, then % feedback resistance is: % resistance=100·((d/c)−(b/a))/(1−(b/a)) […]
Feedback resistance (%) is calculated as follows: if a and b are the measured mevalonate kinase activities of the wild-type enzyme in the absence and presence, respectively, of the feedback inhibitor (in this case, FPP), and if c and d are the measured mevalonate kinase activities of the mutant enzyme in the absence and presence, respectively, of the same feedback inhibitor, then % feedback resistance is: % resistance=100·((d/c)−(b/a))/(1−(b/a))

[4] = pH 8

Molecule: CC(C)=CCOP(=O)(O)OP(=O)(O)O [DMAPP, 3,3-dimethylallyl diphosphate]
- Inhibition of mevalonate kinase activity [1]: 14.7%

Molecule: CC(C)=CCC/C(C)=C/CC/C(C)=C/CC/C(C)=C/COP(=O)(O)OP(=O)(O)O [GGPP, geranylgeranyl diphosphate]
- Inhibition of mevalonate kinase activity [1]: 98%

Molecule: CC(C)=CCC/C(C)=C/COP(=O)(O)OP(=O)(O)O [GPP, geranyl diphosphate]
- Inhibition of mevalonate kinase activity [1]: 18.6%

Molecule: C=C(C)CCOP(=O)(O)OP(=O)(O)O [IPP, isopentenyl diphosphate]
- Inhibition of mevalonate kinase activity [1]: 16.3%

B1: G47D (protein, listed as Paracoccus zeaxanthinifaciens)
chain: MSTGRPEAGAHAPGKLILSGEHSVLYGAPALAMAIARYTEVWFTPLDIGEGIRTTFANLSGGATYSLKLLSGFKSRLDRRFEQFLNGDLKVHKVLTHPDDLAVYALASLLHDKPPGTAAMPGIGAMHHLPRPGELGSRTELPIGAGMGSSAAIVAATTVLFETLLDRPKTPEQRFDRVRFCERLKHGKAGPIDAASVVRGGLVRVGGNGPGSISSFDLPEDHDLVAGRGWYWVLHGRPVSGTGECVSAVAAAHGRDAALWDAFAVCTRALEAALLSGGSPDAAITENQRLLERIGVVPAATQALVAQIEEAGGAAKICGAGSVRGDHGGAVLVRIDDAQAMASVMARHPDLDWAPLRMSRTGAAPGPAPRAQPLPGQG
- Specific activity (% of wild-type) [2]: 121 % of wild-type
- Feedback resistance (%) [3]: 32%

B2: K93E (protein, listed as Paracoccus zeaxanthinifaciens)
chain: B1 chain with D47G, K93E
- Specific activity (% of wild-type) [2]: 109 % of wild-type
- Feedback resistance (%) [3]: 33%

B3: WT: wild-type His6-tagged mevalonate kinase of Paracoccus zeaxanthinifaciens, SEQ ID NO:15 (protein)
chain: MRGSHHHHHHSTGRPEAGAHAPGKLILSGEHSVLYGAPALAMAIARYTEVWFTPLGIGEGIRTTFANLSGGATYSLKLLSGFKSRLDRRFEQFLNGDLKVHKVLTHPDDLAVYALASLLHDKPPGTAAMPGIGAMHHLPRPGELGSRTELPIGAGMGSSAAIVAATTVLFETLLDRPKTPEQRFDRVRFCERLKHGKAGPIDAASVVRGGLVRVGGNGPGSISSFDLPEDHDLVAGRGWYWVLHGRPVSGTGECVSAVAAAHGRDAALWDAFAVCTRALEAALLSGGSPDAAITENQRLLERIGVVPAATQALVAQIEEAGGAAKICGAGSVRGDHGGAVLVRIDDAQAMASVMARHPDLDWAPLRMSRTGAAPGPAPRAQPLPGQG
modifications: His6 tag; His6-Paracoccus zeaxanthinifaciens
- Specific activity (% of wild-type) [2]: 100 % of wild-type
- Feedback resistance (%) [3]: 0%
- Solubility / tendency to aggregate [4]: pronounced tendency to aggregate/precipitate
